Data reported in US20030092616A1, “STAT6 activation gene” (priority 2001, published 2003).

B1: 217 (nucleic acid, listed as Homo sapiens)
chain: AAGCAATGCGCAGCAGCCAGATCTGTCCAAAGCAGTTTCACTCTCAATGGGACTGTATATGGGAGAGACAGAAACAAAAGTGATGGGAAATGACCTGGGATTCCCACAGCAGGGCCAAATCAGCCTTTCCTCGGGGGAAACAGACTTAAAGCTTTTGGAAGAAAGCATTGCAAACCTCAATAGGTCGACCAGTGTTCCAGAGAACCCCAAGAGTTCAGCATCCACTGCTGTGTCTGCTGCCCCCACAGAGAAGGAGTTTCCAAAAACTCACTCTGATGTATCTTCAGAACAGCAACATTTGAAGGGCCAGACTGGCACCAACGGTGGCAATGTGAAATTGTATACCACAGACCAAAGCACCTTTGACATTTTGCAGGATTTGGAGTTTTCTTCTGGGTCCCCAGGTAAAGAGACGAATGAGAGTCCTTGGAGATCAGACCTGTTGATAGATGAAAACTGTTTGCTTTCTCCTCTGGCGGGAGAAGACGATTCATTCCTTTTGGAAGGAAACTCGAATGAGGACTGCAAGCCTCTCATTTTACCGGACACTAAACCCAAAATTAAGGATAATGGAGATCTGGTTTTGTCAAGCCCCAGTAATGTAACACTGCCCCAAGTGAAAACAGAAAAAGAAGATTTCATCGAACTCTGCACCCCTGGGGTAATTAAGCAAGAGAAACTGGGCACAGTTTACTGTCAGGCAAGCTTTCCTGGAGCAAATATAATTGGTAATAAAATGTCTGCCATTTCTGTTCATGGTGTGAGTACCTCTGGAGGACAGATGTACCACTATGACATGAATACAGCATCCCTTTCTCAACAGCAGGATCAGAAGCCTATTTTTAATGTCATTCCACCAATTCCCGTTGGTTCCGAAAATTGGAATAGGTGCCAAGGATCTGGAGATGACAACTTGACTTCTCTGGGGACTCTGAACTTCCCTGGTCGAACAGTTTTTTCTAATGGCTATTCAAGCCCCAGCATGAGACCAGATGTAAGCCCTCCTCCATCCAGCTCCTCAACAGCAACAACAGGACCACCTCCCAAACTCTGCCTGGTGTGCTCTGATGAAGCTTCAGGATGTTATTATGGAGTCTTAACTTGTGGAAGCTGTAAAGTTTTCTTCAAAAGAGCAGTGGAAGGACAGCACAATTACCTATGTGCTGGAAGGAATGATTGCATCATCGATAAAATTCGAAGAAAAAACTGCCCAGCATGCCGCTATCGAAAATGTCTTCAGGCTGGAATGAACCTGGAAGCTCG
modifications: CDS (47)..(1261)
B2: 26 (nucleic acid, listed as Homo sapiens)
chain: AGCCAAGGAGCAATAACTGAACGTTTAAGAAGCTTCAGTATGCATGATTTAACAACTATCCAAGGTGATGAGCCTGTGGGACAAAGACCATACCAACCTCTACCAGAAGCAAAAAAGAAAAGTAAACCAGCCCCCAGTGAATCAGCAGGTTATGGAATTCCACTGAAAGACGGAGATGAGAAAACAGATGAAGAAGCAGAGGGGCCATATTCAGATAATGAGATGTTAACACACAAAGGGCTTCGAAGATCGCAAAGCATGAAATCTGTGAAAACCACCAAAGGCCGCAAAGAGGTGCGGTACGGGTCACTAAAATACAAAGTGAAGAAACGACCACAAGTGTATTTTTAGTCATCTACACGTCAAATATCCCAAGACAGATTATGCTAAATACATCGACTTCATCTTCTAACATGATATATTCAGGATTTACACATTAAAATGATTATTT
modifications: CDS (40)..(348)

Test system: STAT6
Assay: Screening of full-length cDNA clones for promotion of STAT6 activation (luciferase reporter N4×8-luc)
Assay type: cell-based
Details: NIH3T3 cells cotransfected with N4×8-luc reporter and cDNA plasmid; 48 h culture, then mouse IL-4 0.5 ng/ml for 6 h
Description: As a preferable method, NIH3T3 cells are inoculated on 10% FBS (Fetal Bovine Serum)-containing IMDM medium in a 96-well cell culture plate to a final cell density of 1×10^4 cells/well, and cultured for 24 hours at 37° C., in the presence of 5% CO2. Then, the luciferase reporter plasmid N4×8-luc which has a STAT6 response sequence, and the expression vector are cotransfected into the cells in a well using FuGENE 6 (Roche). After 48 hours of culture at 37° C., in the presence of 5% CO2 mouse IL-4 (Immuno Biological Laboratories Co., Ltd.) is added to a final concentration of 0.5 ng/ml. After culturing for further 6 hours, promoting activity for STAT6 activation is then measured by measuring luciferase activity using a long term luciferase assay system, Picagene LT2.0 (Toyo Ink Mfg). For example, luciferase activity can be measured using PerkinElmer's Wallac ARVOTMST 1420 MULTILABEL COUNTER. The method for gene introduction by FuGENE6, and measurement of luciferase activity by Picagene LT2.0 can be performed respectively according to the attached protocols. In a method of gene introduction with a 96-well plate using FuGENE6, the amount of FuGENE6 per 1 well is suitably 0.3 to 0.5 μl, preferably 0.3 μl; the amount of N4×8-luc reporter plasmid is suitably 50 to 100 ng, preferably 100 ng; and the amount of expression vector is suitably 50 to 100 ng, preferably 100 ng. An ability (action) to promote STAT6 activation refers to an ability to increase the reporter activity (luciferase activity) relative to the control experiment (for cells into which the reporter gene and a null vector were introduced). Increase in reporter activity is preferably by a factor of 1.5 or more, more preferably by a factor of 3 or more, and still more preferably by a factor of 6 or more.
NIH3T3 cells (purchased from Dainippon Pharmaceutical) were grown to 1×10^4 cells/well in a 96 well plate for cell culture for 24 hours at 37° C. (in the presence of 5% CO2) using 10% FBS containing IMDM medium. Then, 100 ng of luciferase reporter plasmid N4×8-luc having a STAT6 response sequence and 2 μl of the full-length cDNA prepared in above Example 1.(3) were cotransfected into the cells in a well using FuGENE 6 (purchased from Roche) according to the manufacturer's protocol. The luciferase reporter plasmid N4×8-luc having the STAT6 response sequence was constructed as follows. […] 157, 2058-2065 (1996)], oligonucleotides having the following sequences were synthesized:
The synthesized oligonucleotides were dissolved in sterile water to be 1μg/μl, respectively, mixed in 10 μl lots, and adjusted the volume to 32 μl with sterile water. The solution was heated for 5 min at 90° C., and gradually cooled down to room temperature to prepare a double-stranded oligonucleotide solution. The solution was reacted with T4 polynucleotide kinase (Takara Shuzo) according to the attached manual, then the reaction product was purified in a usual manner. Separately, SV40 promoter region of pGL3-Promoter vector (Promega) was replaced by the HSV thymidine kinase promoter sequence (from −50 to +10) with Hind III site and BglII site to construct a vector tk-luc. The aforesaid double-stranded oligonucleotide fragments were inserted into the XhoI site of this tk-luc vector using T4 DNA ligase (GIBCO/BRL). The obtained clones were sequenced according to a usual method, and clones in which plural oligonucleotide fragments were inserted were selected. […] The four-interlinked DNA fragments were excised from the N4×4-luc with a XhoI and a BglII site and purified to be inserted into a BamHI and a XhoI site of pBluescript II KS+ (Stratagene). The four-interlinked DNA fragments were excised from this plasmid with KpnI and SpeI and inserted into a KpnI and a NheI site of N4×4-luc plasmid to finally obtain N4×8-luc.

| Molecule | Activity = (luciferase activity of the gene of each SEQ ID NO:)/(luciferase activity of pME18S-FL3) |
| --- | --- |
| B1 | 1521.5 |
| B2 | 33.5 |
